± gives the half width of the 95% confidence interval.
Assays:
[1] = folding stability dG unfold from trypsin proteolysis; higher = more stable
Outline: (§1)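 How resistant each design was to proteolysis was captured as K50, inferred by Bayesian fitting of sequencing counts. Unfolding free energy was then derived relative to a sequence-predicted unfolded-state K50 and a shared folded-state K50, per protease or combined. Digestion used trypsin and chymotrypsin at 11 threefold-diluted concentrations plus a no-protease condition, on mini-proteins under 80 residues without cysteine in a PA-tagged cDNA display construct. Designs were kept only when AlphaFold2 dimer inter-PAE was above 15.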

[2] = folding stability dG unfold from chymotrypsin proteolysis; higher = more stable
Outline: as §1

[3] = folding stability dG unfold (combined trypsin and chymotrypsin); higher = more stable
Outline: as §1

SAGGSAGGSAMRELVKRAAKNGNPGQKVMIRPPDKRYFPITVEGNKIEPKDLPPGWEVHVISAGGSAGGSAG [r3_244_TrROS]
folding stability dG unfold [1]: -0.427 ± 0.39 kcal/mol
folding stability dG unfold [2]: -0.443 ± 0.3 kcal/mol
folding stability dG unfold [3]: -0.37 ± 0.28 kcal/mol

SAGGSAGGSMRTITYEFPPGTTKEEVIEKVKELAKKEGLPIEKIESITEDPETGTYTVTVVVKSAGGSAGGS [r12_131_JUSTAS]
folding stability dG unfold [1]: 4.2 ± 0.42 kcal/mol
folding stability dG unfold [2]: 4.65 ± 0.14 kcal/mol
folding stability dG unfold [3]: 4.59 ± 0.34 kcal/mol

SAGGSAGGSPVVTVENVTRPSDYYTYTFKLPDGTVITLDAKSEEEAREKAKELGLENLNFKTEESAGGSAGG [r6_601_JUSTAS]
folding stability dG unfold [1]: 3.15 ± 0.19 kcal/mol
folding stability dG unfold [2]: 3.88 ± 0.13 kcal/mol
folding stability dG unfold [3]: 3.8 ± 0.14 kcal/mol

SASKRFVFPVLGDEQTITVDVPEDYYVRITVFFPDGSEPILIPPNEKVTITVPRKDAFVVIEVFPKNEESAG [r14_882_TrMRF]
folding stability dG unfold [1]: 2.59 ± 0.077 kcal/mol
folding stability dG unfold [2]: 2.35 ± 0.025 kcal/mol
folding stability dG unfold [3]: 2.48 ± 0.067 kcal/mol

SAGGSAGGSAGGKVVKKVKVLTKTPKGGYKVIEVDFTDPSAVVEEAKKAGLEVLKVEEVSAGGSAGGSAGGS [r10_882_TrMRF]
folding stability dG unfold [1]: -0.045 ± 0.079 kcal/mol
folding stability dG unfold [2]: 1.05 ± 0.094 kcal/mol
folding stability dG unfold [3]: 0.728 ± 0.098 kcal/mol

SAGGSAGGSAGMTKTITVGDKKVNVTITPLPTPTTKVTITFPDGSTKTVTLPAGTPITLGSAGGSAGGSAGG [r11_525_JUSTAS]
folding stability dG unfold [1]: 0.566 ± 0.045 kcal/mol
folding stability dG unfold [2]: 0.176 ± 0.064 kcal/mol
folding stability dG unfold [3]: 0.326 ± 0.054 kcal/mol

SAGGSAGGSPVIAVRVKRIEVTYDAATGRLTVRIEVEVDGKTYTITVPPGAEIKPGDTLLIEPSAGGSAGGS [r20_49_TrROS_Hall]
folding stability dG unfold [1]: 4.23 ± 0.098 kcal/mol
folding stability dG unfold [2]: 4.434 ± 0.038 kcal/mol
folding stability dG unfold [3]: 4.375 ± 0.041 kcal/mol

SAGGSGMIPVTVDFPPDVSEEEIKAYVEELEKKGYKVLKVEITTEKDAKGNTLRTVTVVLAPPSLLSAGGSA [r2_442_JUSTAS]
folding stability dG unfold [1]: 3.14 ± 0.048 kcal/mol
folding stability dG unfold [2]: 3.143 ± 0.02 kcal/mol
folding stability dG unfold [3]: 3.15 ± 0.048 kcal/mol

SAGGSAGGSAGMRKVVTGKEAVVKLTGIPPEVLEAMSEEELRALVAPLVEAGKVDEIELKSAGGSAGGSAGG [r11_80_JUSTAS]
folding stability dG unfold [1]: -0.0624 ± 0.17 kcal/mol
folding stability dG unfold [2]: 0.898 ± 0.052 kcal/mol
folding stability dG unfold [3]: 0.601 ± 0.13 kcal/mol

SAGGMTSTLTVTLTVSPSTSPEEAAERAAEALEAAHPDRTVVIESITVTPATGKVVATIKVVGDTGASAGGS [r8_26_JUSTAS]
folding stability dG unfold [1]: 1.53 ± 0.055 kcal/mol
folding stability dG unfold [2]: 1.18 ± 0.029 kcal/mol
folding stability dG unfold [3]: 1.39 ± 0.07 kcal/mol

SAGGYVRIRIELQEKRKPPDGKQQQRKKKITITVRLPPNEEMRMPDGKDIDPGKSAEELADYALDNLSAGGS [r16_440_TrROS]
folding stability dG unfold [1]: 2.16 ± 0.08 kcal/mol
folding stability dG unfold [2]: 1.68 ± 0.077 kcal/mol
folding stability dG unfold [3]: 1.92 ± 0.15 kcal/mol

SAGGSAGGSAGPPIMVMVHKHDKEDGKPKIDESIPIDIPPDQQDKLKEEANERGYHVHPFSAGGSAGGSAGG [r17_18_TrROS]
folding stability dG unfold [1]: 0.207 ± 0.054 kcal/mol
folding stability dG unfold [2]: 0.0379 ± 0.11 kcal/mol
folding stability dG unfold [3]: 0.158 ± 0.091 kcal/mol

SAGPPGQPVKTIEIMIEFPPGQTMEEARERVEEIADEIQRKFPKIKSIDVDVQKDDDTYYVNANITIPYSAG [r5_446_TrROS]
folding stability dG unfold [1]: 0.848 ± 0.048 kcal/mol
folding stability dG unfold [2]: 0.372 ± 0.19 kcal/mol
folding stability dG unfold [3]: 0.688 ± 0.19 kcal/mol

SAGMTLTVVLPVPEEMTEEEAAEILRAYVDAVVAELLAGDAVAVPKEIVVDKETGTAVAKVELFIPPDLSAG [r5_146_TrMRF]
folding stability dG unfold [1]: 2.59 ± 0.064 kcal/mol
folding stability dG unfold [2]: 2.56 ± 0.027 kcal/mol
folding stability dG unfold [3]: 2.58 ± 0.068 kcal/mol

SAGGGEKWKIKFKDAEAYINAPEGKVEIVPPDGSKITIDFPPDIPPEVVAKLLAEELGFDEAEIEPVESAGG [r13_852_TrMRF]
folding stability dG unfold [1]: -0.263 ± 0.085 kcal/mol
folding stability dG unfold [2]: 0.357 ± 0.13 kcal/mol
folding stability dG unfold [3]: 0.168 ± 0.14 kcal/mol

SMEILEMDIEEILSLLPEDIHPDVPYTLTVPGLEIRILDVAPVREEEGGPRPTTVIEVFLPDGPVVFPLESA [r9_279_TrMRF]
folding stability dG unfold [1]: 0.872 ± 0.042 kcal/mol
folding stability dG unfold [2]: 1.26 ± 0.069 kcal/mol
folding stability dG unfold [3]: 1.11 ± 0.12 kcal/mol

SAGGSAGGSAGGSGMTSTTYRLPEGNVVLVETFDPATGTVTLEIRGPPSVERTLTLPVASAGGSAGGSAGGS [r4_443_JUSTAS]
folding stability dG unfold [1]: 2.63 ± 0.29 kcal/mol
folding stability dG unfold [2]: 3.64 ± 0.088 kcal/mol
folding stability dG unfold [3]: 3.21 ± 0.24 kcal/mol

SAGGDPNGKWVTINIPIWIPGPPEQAEMIAESIMEELGFEITDVKVEPHPDDPNWVRIDITLTFRKKSAGGS [r8_479_TrROS]
folding stability dG unfold [1]: 2.74 ± 0.097 kcal/mol
folding stability dG unfold [2]: 3.03 ± 0.044 kcal/mol
folding stability dG unfold [3]: 2.83 ± 0.18 kcal/mol

SAGGSAGGSAGGSMIVVPVTSNEVVDNLGGPVTVPAGTVIIIERTENSVKVEVLPPEKLSAGGSAGGSAGGS [r10_353_JUSTAS]
folding stability dG unfold [1]: 0.917 ± 0.048 kcal/mol
folding stability dG unfold [2]: 0.353 ± 0.019 kcal/mol
folding stability dG unfold [3]: 0.643 ± 0.11 kcal/mol

SAGGSSSLAIITIKPKEIKSYYNPNNPVVVSEMEFEVDITIYSDNEISPEKVKELIEEIEKAFPGIKSAGGS [r8_306_TrMRF]
folding stability dG unfold [1]: 1.31 ± 0.051 kcal/mol
folding stability dG unfold [2]: 2.88 ± 0.11 kcal/mol
folding stability dG unfold [3]: 2.32 ± 0.18 kcal/mol

SAGGSAGGDEIADKVKDLLRKHGWPVKEVEVTVMPHPPGRVYVMIEITMEHPGKKWTMEIMVEVSAGGSAGG [r6_533_TrROS]
folding stability dG unfold [1]: 3.15 ± 0.14 kcal/mol
folding stability dG unfold [2]: 4.79 ± 0.054 kcal/mol
folding stability dG unfold [3]: 4.66 ± 0.13 kcal/mol

Reference: the supplement of paper PMC12764529
